Results on 4 variants are retold here after paper PMC4366279 (PLoS ONE, 2015).

B1: T. brucei RNA Editing Ligase 1 (TbREL1), full length wild type [modified: [35S]-methionine labelled; [35S]-methionine labelled] [Trypanosoma brucei] / KREPA2 [modified: [35S]-methionine labelled; [35S]-methionine labelled] [Trypanosoma … (parent complex)
chain 1: YMPLPNDQSDFSPYIEIDLPSESRIQSLHKSGLAAQEWVACEKVHGTNFGIYLINQGDHEVVRFAKRSGIMDPNENFFGYHILIDEFTAQIRILNDLLKQKYGLSRVGRLVLNGELFGAKYKHPLVPKSEKWCTLPNGKKFPIAGVQIQREPFPQYSPELHFFAFDIKYSVSGAEEDFVLLGYDEFVEFSSKVPNLLYARALVRGTLDECLAFDVENFMTPLPALLGLGNYPLEGNLAEGVVIRHVRRGDPAVEKHNVSTIIKLRCSSFMELKHPGKQKELKETFIDTVRSGALRRVRGNVTVISDSMLPQVEAAANDLLLNNVSDGRLSNVLSKIGREPLLSGEVSQVDVVLMLAKDALKDFLKEVDSLVLNTTLAFRKLLITNVYFESKRLVEQKWKELMQEEAAAQSEAIPPLSPAAPTKGE
chain 2: MYRRFFRSAAVKHLGTTSAQCLMRATKYPCGAMCRNASSCHPQTLGYQQRFQSTTDKKFHCSVCKKPFRLEMAAKLHLQQAHGGDGSVEAGPGPGVEASSVNVVSTPVPSPISPVERTFVDEEERRPRRMRPTPKPLHQPDRDIPAAAMEEMLGVWDKIGLNRLEGNFVHSTMVMKVFAAPPDVSEIPLYEHVAPEGENPFDSLDHMTTGTVDATYVGHDAFAEVDLVDPFVAAPDQTLNPFRAGKVRNPFTRISPTQREVVKPLQPPQPKEEPLKAPVTPFGQLPMFGQTREPSASFAAAAVSVQAAANPNEVSSPFAAAVSSSPFVGQVASPFAPAQDVAGSPFEASPCAASSPFVTAGGQETSPFAAPSTPASFGQGSLFPPMGTGAPGFTAITETEQRQQELEHGCPTCGKKFSTFEGAAMHSKSKHGIVLESKKVKDRLNRKGVPDLPAYVPSPVDLSSTSPFGTRSAIGASWAETELIPHAQCVSNITIVGRVLDVSQASENVSHVTVFVEGERSGEEETLTLCCFGEVSQKIRGTLKRNATIFASGTLRLHPVYEASNNKYYVSPVVHVSMPTGTLAVIT

The variants in the assay derive from B1. The assay is described as follows: co-precipitation (pull-down) with His-tag isolation beads, [35S]-methionine labeled proteins; parent: 100; read off a plot.
chain 1 S170A: the percent of parent was ~66 % of WT.
As for chain 1 E411A, the figure is ~94 % of WT; as for chain 1 H161A, ~94 % of WT.
As for chain 1 K361A, the figure is ~67 % of WT.
